{"source": "the supplement of paper PMC10567573", "experiment": "protein stability index of a GFP-peptide fusion (GPS, HEK-293T) (PSI 1-6); higher = more stable", "key": {"[1]": {"details": "treatment: DMSO, c terminus: a fixed tail appended"}, "[2]": {"details": "treatment: MLN4924 1 uM, 8 h, c terminus: a fixed tail appended"}}, "note": "± gives the standard deviation.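 Also: 24-mer peptide tiles fused after GFP, lentivirally expressed, FACS-sorted into six equal bins by GFP/DsRed ratio, decoded by Illumina sequencing, PSI is the read-weighted mean bin number.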", "data": [{"sequence": "RDIRCSEDEKLCDPNTRPVGEKNC [ADAMTSL2]", "values": [{"measurement": "protein stability index", "setting": "[1]", "value": "5.18 ± 0.28"}, {"measurement": "protein stability index", "setting": "[2]", "value": "5.35 ± 0.22"}]}, {"sequence": "RYLADLLPSVFGSLRDSGYFYDPI [RSPH3]", "values": [{"measurement": "protein stability index", "setting": "[1]", "value": "2.55 ± 0.49"}, {"measurement": "protein stability index", "setting": "[2]", "value": "2.6 ± 0.66"}]}, {"sequence": "KQNPSRQEVTKLQQQVKTNGAGVT [FBXO28]", "values": [{"measurement": "protein stability index", "setting": "[1]", "value": "4.68 ± 0.2"}, {"measurement": "protein stability index", "setting": "[2]", "value": "4.47 ± 0.35"}]}, {"sequence": "EAKAVGLISHVLEQNQEGDAAYRK [AUH]", "values": [{"measurement": "protein stability index", "setting": "[1]", "value": "5.22 ± 0.22"}, {"measurement": "protein stability index", "setting": "[2]", "value": "5.18 ± 0.28"}]}, {"sequence": "LKPLLSPSSETTVTVELPEADRAG [LYSMD4]", "values": [{"measurement": "protein stability index", "setting": "[1]", "value": "5.04 ± 0.23"}, {"measurement": "protein stability index", "setting": "[2]", "value": "5.07 ± 0.28"}]}, {"sequence": "DLSPLLGFWQLPPPATQNTFGNST [PLAGL1]", "values": [{"measurement": "protein stability index", "setting": "[1]", "value": "2.36 ± 0.43"}, {"measurement": "protein stability index", "setting": "[2]", "value": "2.5 ± 0.23"}]}, {"sequence": "LDKLNFEAINFCRGLGSQASTVTE [ACSBG2]", "values": [{"measurement": "protein stability index", "setting": "[1]", "value": "3.36 ± 0.5"}, {"measurement": "protein stability index", "setting": "[2]", "value": "3.71 ± 0.24"}]}, {"sequence": "VLLQTSPYHVDSLLQLSDACRFQE [TCF25]", "values": [{"measurement": "protein stability index", "setting": "[1]", "value": "2.22 ± 0.41"}, {"measurement": "protein stability index", "setting": "[2]", "value": "2.41 ± 0.56"}]}, {"sequence": "NNPISEHFHPTVIGESMYGDFEEA [TENT5C]", "values": [{"measurement": "protein stability index", "setting": "[1]", "value": "4.89 ± 0.28"}, {"measurement": "protein stability index", "setting": "[2]", "value": "4.89 ± 0.17"}]}, {"sequence": "GMANGQQWLQSTSGSQRHMVGQKD [TLE6]", "values": [{"measurement": "protein stability index", "setting": "[1]", "value": "4.49 ± 0.17"}, {"measurement": "protein stability index", "setting": "[2]", "value": "4.47 ± 0.29"}]}, {"sequence": "YRMRNVHPKPKLVRVLESLLVSLV [CLCN6]", "values": [{"measurement": "protein stability index", "setting": "[1]", "value": "2.44 ± 0.75"}, {"measurement": "protein stability index", "setting": "[2]", "value": "2.18 ± 0.35"}]}, {"sequence": "KNRSFDIDAIYSVIDDAKQYVYIA [PLD5]", "values": [{"measurement": "protein stability index", "setting": "[1]", "value": "2.75 ± 0.55"}, {"measurement": "protein stability index", "setting": "[2]", "value": "2.47 ± 0.71"}]}, {"sequence": "SRSTLECAYRTHLVAGIGFYQHLL [SMG5]", "values": [{"measurement": "protein stability index", "setting": "[1]", "value": "2.9 ± 0.35"}, {"measurement": "protein stability index", "setting": "[2]", "value": "2.83 ± 0.57"}]}, {"sequence": "FRPYFTIHDSEFKEYTTRTQAPPS [DENND6A]", "values": [{"measurement": "protein stability index", "setting": "[1]", "value": "2.55 ± 0.23"}, {"measurement": "protein stability index", "setting": "[2]", "value": "2.71 ± 0.27"}]}, {"sequence": "QELANIDPTWIESPKTNGHIENGP [SRPK2]", "values": [{"measurement": "protein stability index", "setting": "[1]", "value": "4.92 ± 0.32"}, {"measurement": "protein stability index", "setting": "[2]", "value": "4.63 ± 0.19"}]}, {"sequence": "DRVLRAMLKAEETCAPSVSYFKCV [CCND1]", "values": [{"measurement": "protein stability index", "setting": "[1]", "value": "2.29 ± 0.25"}, {"measurement": "protein stability index", "setting": "[2]", "value": "2.35 ± 0.4"}]}, {"sequence": "TRLLLQFTQPQQTSFALERNLRTQ [C8orf76]", "values": [{"measurement": "protein stability index", "setting": "[1]", "value": "2.33 ± 0.46"}, {"measurement": "protein stability index", "setting": "[2]", "value": "2.52 ± 0.27"}]}, {"sequence": "QIDAVGSKLKMLERKGWLAPSPGV [PKD2L1]", "values": [{"measurement": "protein stability index", "setting": "[1]", "value": "3 ± 0.45"}, {"measurement": "protein stability index", "setting": "[2]", "value": "3.17 ± 0.22"}]}, {"sequence": "GHLRGPEIRDWRGPQLEGEKDWGL [ZSWIM9]", "values": [{"measurement": "protein stability index", "setting": "[1]", "value": "3.66 ± 0.39"}, {"measurement": "protein stability index", "setting": "[2]", "value": "3.52 ± 0.47"}]}, {"sequence": "FYQSPYDSEQVPQALRRLRPRTRK [NCF4]", "values": [{"measurement": "protein stability index", "setting": "[1]", "value": "4.63 ± 0.37"}, {"measurement": "protein stability index", "setting": "[2]", "value": "4.68 ± 0.3"}]}, {"sequence": "VQFVFDAVTDVIIKNNLKDCGLF [GNAI1]", "values": [{"measurement": "protein stability index", "setting": "treatment: DMSO, c terminus: native", "value": "2.68 ± 0.81"}, {"measurement": "protein stability index", "setting": "treatment: MLN4924 1 uM, 8 h, c terminus: native", "value": "2.61 ± 0.73"}]}, {"sequence": "TEEQTRQERQGPAKPEVLSIQWPG [NECAB1]", "values": [{"measurement": "protein stability index", "setting": "[1]", "value": "5.07 ± 0.058"}, {"measurement": "protein stability index", "setting": "[2]", "value": "5.14 ± 0.15"}]}, {"sequence": "EEETVTTKHIHITQATETTTTRHK [CLINT1]", "values": [{"measurement": "protein stability index", "setting": "[1]", "value": "5.15 ± 0.2"}, {"measurement": "protein stability index", "setting": "[2]", "value": "5.19 ± 0.44"}]}, {"sequence": "QLRKQKKKTGKSSTTALGDKQRKA [ELOA2]", "values": [{"measurement": "protein stability index", "setting": "[1]", "value": "4.73 ± 0.51"}, {"measurement": "protein stability index", "setting": "[2]", "value": "4.82 ± 0.39"}]}, {"sequence": "PAPTATVPAPQPPVTKPLFPSAGQ [ZNF207]", "values": [{"measurement": "protein stability index", "setting": "[1]", "value": "4.82 ± 0.39"}, {"measurement": "protein stability index", "setting": "[2]", "value": "4.8 ± 0.18"}]}, {"sequence": "LVLSEDRKSVRYTRQKKNLPDSPL [TRIM15]", "values": [{"measurement": "protein stability index", "setting": "[1]", "value": "3.48 ± 0.33"}, {"measurement": "protein stability index", "setting": "[2]", "value": "3.77 ± 0.15"}]}, {"sequence": "PYSTVDNPVYYGPSDFFIGAVIEV [EFHC1]", "values": [{"measurement": "protein stability index", "setting": "[1]", "value": "2.8 ± 0.48"}, {"measurement": "protein stability index", "setting": "[2]", "value": "3.13 ± 0.53"}]}, {"sequence": "KDIVQTVRSRLEEAGIKVHDVRLN [TENT5C]", "values": [{"measurement": "protein stability index", "setting": "[1]", "value": "2.44 ± 0.35"}, {"measurement": "protein stability index", "setting": "[2]", "value": "2.78 ± 0.28"}]}, {"sequence": "SRAILQRVQAAAFGPGQTLLSSVH [ALKBH7]", "values": [{"measurement": "protein stability index", "setting": "[1]", "value": "2.72 ± 0.14"}, {"measurement": "protein stability index", "setting": "[2]", "value": "2.65 ± 0.35"}]}, {"sequence": "QDSSVTSKRNIKKGAVPRSIPNLA [HDAC6]", "values": [{"measurement": "protein stability index", "setting": "[1]", "value": "4.17 ± 0.26"}, {"measurement": "protein stability index", "setting": "[2]", "value": "4.21 ± 0.41"}]}, {"sequence": "VVQGPDGRLELKPLLLRLPRICQR [FANCE]", "values": [{"measurement": "protein stability index", "setting": "[1]", "value": "2.35 ± 0.33"}, {"measurement": "protein stability index", "setting": "[2]", "value": "2.45 ± 0.15"}]}, {"sequence": "EDSAQNCFALIPKAPKKDVIKMLV [EFHC1]", "values": [{"measurement": "protein stability index", "setting": "[1]", "value": "2.69 ± 0.4"}, {"measurement": "protein stability index", "setting": "[2]", "value": "2.97 ± 0.26"}]}, {"sequence": "MQVIAIVLYLMMPIVNISEVLGPL [PHTF1]", "values": [{"measurement": "protein stability index", "setting": "[1]", "value": "3.08 ± 0.29"}, {"measurement": "protein stability index", "setting": "[2]", "value": "3.34 ± 0.38"}]}, {"sequence": "KELRKDYQGPGTRRLQEVLGVQTG [DYRK1B]", "values": [{"measurement": "protein stability index", "setting": "[1]", "value": "4.07 ± 0.16"}, {"measurement": "protein stability index", "setting": "[2]", "value": "4.42 ± 0.17"}]}, {"sequence": "YLNGASVLPHKSIGESVPEPRIIM [GMPPB]", "values": [{"measurement": "protein stability index", "setting": "[1]", "value": "2.79 ± 0.35"}, {"measurement": "protein stability index", "setting": "[2]", "value": "2.84 ± 0.34"}]}, {"sequence": "MSQTGSHPGRGLAGRWLWGAQPCL [ADAMTS4]", "values": [{"measurement": "protein stability index", "setting": "[1]", "value": "3 ± 0.38"}, {"measurement": "protein stability index", "setting": "[2]", "value": "2.28 ± 0.87"}]}]}
